These results are taken from US20240368263A1 (PROMETHEUS BIOSCIENCES, published 2024).

T1: membrane-associated human TL1A on transfected HEK293 cells (human, UniProt O95150 1-251)
T1 construct: whole, on cells
T1 sequence (looked up): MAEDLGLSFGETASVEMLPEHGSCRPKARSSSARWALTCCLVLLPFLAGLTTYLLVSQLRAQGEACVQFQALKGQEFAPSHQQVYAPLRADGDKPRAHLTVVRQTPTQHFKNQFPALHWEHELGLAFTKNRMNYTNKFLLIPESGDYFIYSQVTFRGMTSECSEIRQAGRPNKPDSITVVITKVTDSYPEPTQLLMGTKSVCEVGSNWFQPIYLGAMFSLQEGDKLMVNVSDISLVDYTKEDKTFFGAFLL

T2: Fas/TNFSF6 (R&D Systems, cat. no. 126-FL/CF) (UniProt P48023 134-281)
T2 sequence (looked up): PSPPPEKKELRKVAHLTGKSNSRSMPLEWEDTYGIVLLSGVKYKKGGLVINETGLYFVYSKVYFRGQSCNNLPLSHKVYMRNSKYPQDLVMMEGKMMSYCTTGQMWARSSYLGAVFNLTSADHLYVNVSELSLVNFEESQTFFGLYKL

T3: human TL1A (Fitzgerald, Prod. #30R-AT070) (human, UniProt O95150 72-251, limits assumed, biotinylated with EZ-Link Sulfo-NHS-LC-Biotin where used as soluble antigen)
T3 construct: also called TNFSF15; biotinylated human TL1A
T3 sequence (looked up): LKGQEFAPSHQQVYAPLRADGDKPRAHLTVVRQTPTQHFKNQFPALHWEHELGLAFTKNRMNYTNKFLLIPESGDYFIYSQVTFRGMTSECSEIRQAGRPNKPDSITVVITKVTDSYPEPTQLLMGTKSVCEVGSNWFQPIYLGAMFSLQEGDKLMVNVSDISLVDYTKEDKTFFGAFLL

B1: Clone 3-17L Fab (Fab, V domains shown)
VH: QVQLVQSGAEVKKPGASVKVSCKASGFDIQDTYMHWVRQAPGQGLEWMGRIDPASGHLKYDPKFQGRVTITRDTSASTVYMELSSLRSEDTAVYYCARSGGLPDMWGQGTTVTVSS
VL: EIVLTQSPGTLSLSPGERATLSCRASSSVSYMYWYQQKPGQAPRLLIYATSNLASGIPDRFSGSGSGTDFTLTISRLEPEDFAVYYCQQWQGNPRTFGGGTKLEIK
notes: Fab
B2: Clone H2-2 Fab (Fab, V domains shown)
VH: B1 VH with L58S, G66V, V68A, R72T, V79A, M81L, E82Q, M105F
VL: B1 VL with Q91S
notes: Fab; also called Clone 112-2
B3: Clone L3-13 Fab (Fab, V domains shown)
VH: B1 VH with L58T, V68A, R72T, V79A, M81L, E82Q, M105F
VL: B1 VL with Q91K
notes: Fab
B4: Clone H2-5 Fab (Fab, V domains shown)
VH: B1 VH with L58Y, G66V, V68A, R72T, V79A, M81L, E82Q, M105F
VL: B1 VL with Q91S
notes: Fab; also called Clone 112-5
B5: Clone A1 Fab (Fab, V domains shown)
VH: B1 VH with G66N, I70M, A76T, M105K
VL: B1 VL with R24G, Q91E
notes: Fab
B6: Clone 17L-1 Fab (Fab, V domains shown)
VH: B1 VH with G66R, I70M, A76T
VL: B1 VL
notes: Fab
B7: Clone H3-1 Fab (Fab, V domains shown)
VH: B1 VH with L58T, V68A, R72T, V79A, M81L, E82Q, M105L
VL: B1 VL with Q91S
notes: Fab
B8: Clone X-V Fab (Fab, V domains shown)
VH: B1 VH with L58T, G66V, V68A, R72T, V79A, M81L, E82Q, M105F
VL: B1 VL with Q91S
notes: Fab
B9: Clone 3-17L V-A Fab (Fab, V domains shown)
VH: B1 VH with V79A
VL: B1 VL
notes: Fab
B10: Clone 16 Fab (Fab, V domains shown)
VH: B1 VH with L58V, Y60I, G66V, I70M, A76T
VL: B1 VL
notes: Fab; also called Clone 16L
B11: Clone XL3-6 Fab (Fab, V domains shown)
VH: B1 VH with L58T, V68A, R72T, V79A, M81L, E82Q, M105F
VL: B1 VL with Q88S, Q91S
notes: Fab
B12: Clone XL3-10 Fab (Fab, V domains shown)
VH: B1 VH with L58T, V68A, R72T, V79A, M81L, E82Q, M105F
VL: B1 VL with Q91S, T96S
notes: Fab
B13: Clone E1 Fab (Fab, V domains shown)
VH: B1 VH with D52E, G66E, I70M, A76T, M105K
VL: B1 VL with R24G, Q91E
notes: Fab
B14: clone 26 Fab (12835 framework variant) (Fab, V domains shown)
VH: B1 VH with L58T, G66V, I70M, R72T, A76T, A97S, M105V
VL: B1 VL with L45P, L46W, I57V, F70Y, Q91S
notes: Fab
B15: clone 27 Fab (12835 framework variant) (Fab, V domains shown)
VH: B1 VH with L58T, G66V, I70M, R72T, A76T, A97S, M105V
VL: B1 VL with L45P, I57V, F70Y, Q91S
notes: Fab

Changes are numbered by the printed parent chain.

LIGHT/TNFSF14 (R&D Systems, cat. no. 664-LI/CF), sequence (O43557 74-240 limits assumed): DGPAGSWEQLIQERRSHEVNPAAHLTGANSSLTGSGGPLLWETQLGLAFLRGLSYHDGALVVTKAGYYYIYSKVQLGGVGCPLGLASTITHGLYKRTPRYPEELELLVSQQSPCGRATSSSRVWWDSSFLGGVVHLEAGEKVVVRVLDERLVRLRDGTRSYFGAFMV

One assay concerns the target T1, membrane-associated human TL1A on …. As to the kind of experiment: flow cytometry, HEK293 cells transfected with human TL1A. The procedure: All the Fab variants were tested for binding to membrane-associated human TL1A. For these studies a HEK293 cell line that had been transfected with human TL1A was used. The 293 cells expressing membrane bound human TL1A were maintained in DMEM containing L-glutamine, glucose, sodium pyruvate, and phenol red (ThermoFisher cat #11995-065) plus 10% fetal bovine serum, 1X penicillin-streptomycin (Fisher cat #15140122) and 2 μg/ml puromycin (Gibco cat #A11138-03) in a 37° C. incubator with 5% CO2. Three days prior to the assay, a T-75 flask was seeded with 3×10⁶ cells so that the flask was 90-95% confluent on the day of the assay. The media was aspirated and the cell monolayer was gently washed with 5 ml PBS. Adherent cells were removed by repeatedly pipetting 10 ml ice cold 1% BSA/PBS against the monolayer. The cells were counted and 5×10⁵ were aliquoted for each sample to be analyzed. The cells were collected by centrifuging at 300× g at 4° C. for 5 minutes and the wash was discarded. The cells were resuspended in 100 μl Fab or IgG diluted in 1% BSA/PBS and placed on ice for 30 min. Next, the cells were washed with 1 ml 1% BSA/PBS and collected by centrifuging at 300× g at 4° C. for 5 min. The wash was discarded and 100 μl secondary goat F (ab′) 2 anti-human kappa FITC (Southern Biotech cat #2062-02) or goat F (ab′) 2 anti-human IgG PE (Southern Biotech cat #2043-09) conjugate, diluted 1:200 in BSA/PBS was added. Cells were placed on ice for 30 min. Finally, the cells were washed with 1 ml BSA/PBS, collected by centrifuging at 300× g at 4° C. for 5 min. The wash was removed and the cells were resuspended in 500 μl 1% BSA/PBS. One drop of Sytox AADvanced ReadyFlow Reagent (ThermoFisher cat #R37173) was added per sample and the samples were analyzed on the Attune NXT Flow Cytometer (ThermoFisher).
(Flow cytometry measures light scatter and fluorescence of single cells or particles in a stream.)
Consider B1, for which the binding result is given as “binds”.
On to B2, for which the binding result was “binds”.
The same measure, in the same setting: the value for B3 was “binds”.
Same read-out and setting: the value for B4 was “binds”; that for B5 was “binds”; that for B6 was “binds”.
On the same count and under the same terms, the value for B7 was “binds”.
Consider B8, for which the binding result is listed as “binds”.
On the same count and under the same terms, the value for B9 was “binds”.
The same measure, in the same setting: the value for B10 was “binds”.
On the same count and under the same terms, the value for B11 was “binds”.
For B12, the binding result is given as “binds”.
In the case of B13, the binding result is “binds”.

The target in another assay is T2, Fas/TNFSF6 (R&D Systems, cat. no. …). As to the kind of experiment: ELISA, antigen coated at 1 µg/ml, Fab titrated. The procedure: (§1) Next, all the Fab variants were characterized for their selectivity for human TL1A relative to other TNFSF members TRAIL, LIGHT and Fas. […] The plate was washed 3 times with PBS-T and blocked with 100 μl of 1% BSA/PBS. The block was discarded and the Fab variants or control antibodies (Fas/TNFSF6, R&D Systems, cat. no. AF126; TRAIL/TNFSF10, R&D Systems, cat. no. AF375; LIGHT/TNFSF14, R&D Systems, cat. no. AF664) were titrated in 50 μl 1% BSA/PBS and incubated for 1 h at 25° C. The plate was washed 3 times with PBS-T and secondary HRP-conjugated antibody (diluted 5,000-fold in 1% BSA/PBS) was added for 1 h at 25° C. The plate was washed 3 times with PBS-T and developed.
Background: ELISA stands for enzyme-linked immunosorbent assay.
B1: the binding result is “no binding”.
As for B2, the binding result is “no binding”.
With B3, the binding result is “no binding”.
On the same count and under the same terms, the value for B4 was “no binding”.
On to B5, for which the binding result was “no binding”.
In the case of B6, the binding result is “no binding”.
The same measure, in the same setting: the value for B7 was “no binding”.
The same measure, in the same setting: the value for B8 was “no binding”; that for B9 was “no binding”.
As for B10, the binding result is listed as “no binding”.
The same measure, in the same setting: the value for B11 was “no binding”; that for B12 was “no binding”.
Take B13: the binding result is recorded as “no binding”.

The target in another assay is TRAIL/TNFSF10 (R&D Systems, cat. no. 375-TL/CF) (UniProt P50591 114-281). The experiment in a line: ELISA, antigen coated at 1 µg/ml, Fab titrated. The procedure: as §1
TRAIL/TNFSF10 (R&D Systems, cat. no. 375-TL/CF), sequence (P50591 114-281 limits assumed): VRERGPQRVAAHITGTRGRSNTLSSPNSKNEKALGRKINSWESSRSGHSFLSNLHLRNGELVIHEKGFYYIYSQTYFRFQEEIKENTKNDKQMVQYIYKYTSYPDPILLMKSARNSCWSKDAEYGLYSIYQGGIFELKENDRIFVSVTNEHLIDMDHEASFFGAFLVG
Regarding B1, the binding result is “no binding”.
Still for that read-out and setting: the value for B2 was “no binding”.
Still for that read-out and setting: the value for B3 was “no binding”; that for B4 was “no binding”; that for B5 was “no binding”.
The same measure, in the same setting: the value for B6 was “no binding”.
For B7, the binding result is reported as “no binding”.
Still for that read-out and setting: the value for B8 was “no binding”.
In the case of B9, the binding result was “no binding”.
For B10, the binding result was “no binding”.
The same measure, in the same setting: the value for B11 was “no binding”; that for B12 was “no binding”; that for B13 was “no binding”.

Another assay addresses LIGHT/TNFSF14 (R&D Systems, cat. no. 664-LI/CF) (UniProt O43557 74-240). The experiment in a line: ELISA, antigen coated at 1 µg/ml, Fab titrated. The procedure:
as §1
Regarding B1, the binding result is “no binding”.
On the same count and under the same terms, the value for B2 was “no binding”; that for B3 was “no binding”; that for B4 was “no binding”.
The same measure, in the same setting: the value for B5 was “no binding”; that for B6 was “no binding”; that for B7 was “no binding”.
Same read-out and setting: the value for B8 was “no binding”; that for B9 was “no binding”; that for B10 was “no binding”.
For the molecule B11, the binding result was “no binding”.
Still for that read-out and setting: the value for B12 was “no binding”.
Turning to B13, the binding result was “no binding”.

The target in another assay is T3, human TL1A (Fitzgerald, Prod. …). The experiment in a line: capture lift screen and Fab ELISA on coated TL1A.
For B14, the binding result is given as “binds”.
Still for that read-out and setting: the value for B15 was “binds”.

The target is the same in another assay. As to the kind of experiment: two ELISA formats: Fab on coated TL1A; captured Fab with biotinylated TL1A. The procedure: Fabs with the CDRs shown in Tables 19 to 22 were tested for binding to human TL1A in multiple formats. Next, uniform (saturating) quantities of soluble Fab variants were captured on the surface of an ELISA plate and soluble, biotinylated human TL1A was titrated as shown in FIGS. 10 to 13.
Turning to B1, the binding result is on record as “binds”.
In the case of B2, the binding result is given as “binds”.
For the molecule B3, the binding result is on record as “binds”.
Turning to B4, the binding result is on record as “binds”.
For B5, the binding result was “binds”.
The same measure, in the same setting: the value for B6 was “binds”; that for B7 was “binds”.
Still for that read-out and setting: the value for B8 was “binds”; that for B9 was “binds”.
Still for that read-out and setting: the value for B10 was “binds”.
B11: the binding result is “binds”.
In the case of B12, the binding result is “binds”.
Same read-out and setting: the value for B13 was “binds”.
